The text below walks through data of publication PMC9529153.

Data set [1] addresses AbHeR K216Q (Actinobacteria bacterium IMCC26103).
Data set [2] deals with Actinobacteria bacterium IMCC26103 heliorhodopsin (AbHeR) wild type (Actinobacteria bacterium IMCC26103).
Data set [3] has the same target. This is another data set of the same source.
The target in data set [4] is AbHeR D223N (Actinobacteria bacterium IMCC26103). Nature of the data set: ITC; AbGS injected into purified AbHeR (WT or mutant) at 25°C, MicroCal ITC200; both in buffer SD (150 mM NaCl, 50 mM Tris-HCl pH 7.0, 0.02% DDM); in the absence of light.
Data set [5] has as its target AbHeR E151Q (Actinobacteria bacterium IMCC26103). Described as above.
Data set [6] addresses AbHeR K148Q (Actinobacteria bacterium IMCC26103). The data set is described as above.
The target in data set [7] is AbHeR K216Q (Actinobacteria bacterium IMCC26103). Described as above.
The target of data set [8] is Actinobacteria bacterium IMCC26103 heliorhodopsin (AbHeR) wild type (Actinobacteria bacterium IMCC26103). Described as above.
Data set [9] shares this target. Kind of data set: ITC; purified AbGS with AbHeR in inverted membrane vesicles (IMV) of E. coli C43 (DE3), no detergent; text: IMVs injected into AbGS, legend: AbGS added to IMVs; in the absence of light.
Data set [10] concerns Glu105. Kind of data set: UV-vis. As to conditions: Not stated for the titration. The purification buffer SD contains 150 mM NaCl., Not stated for the titration. The purified protein was in buffer SD: 150 mM NaCl, 50 mM Tris-HCl pH 7.0, 0.02% DDM. The protocol is referred to ref 8., detergent-solubilised, retinal-bound AbHeR WT. Light adaptation is not stated.

Chain of Actinobacteria bacterium IMCC26103 heliorhodopsin (AbHeR) wild type (Actinobacteria bacterium IMCC26103) (main, as listed by the source): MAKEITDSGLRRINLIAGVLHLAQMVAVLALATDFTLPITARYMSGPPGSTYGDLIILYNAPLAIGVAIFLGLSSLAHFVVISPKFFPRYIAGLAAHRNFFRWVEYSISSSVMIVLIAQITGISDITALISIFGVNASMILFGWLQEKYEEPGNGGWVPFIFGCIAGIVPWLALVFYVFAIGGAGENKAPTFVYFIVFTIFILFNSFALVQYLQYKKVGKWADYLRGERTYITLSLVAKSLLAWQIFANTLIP

On to “Actinobacteria bacterium IMCC26103 glutamine synthetase (AbGS) (enzyme)”, for which, in [1], the kcat/Km of AbGS (Glu, Mn2+-supported biosynthetic reaction, 37°C) with AbHeR K216Q IMV, dark; AbGS alone 5.42 turned out to be 5.45 M⁻¹ s⁻¹. In addition, the kcat/Km of AbGS (Glu, Mn2+-supported biosynthetic reaction, 37°C) with AbHeR K216Q IMV, light (532 nm); AbGS alone 5.42 in [1] was 6.91 M⁻¹ s⁻¹. For the same substance, in data set [2], the kcat/Km of AbGS (Glu, Mn2+-supported biosynthetic reaction, 37°C) with AbHeR WT IMV, dark; AbGS alone 5.42 amounted to 8.01 M⁻¹ s⁻¹. Also, the kcat/Km of AbGS (Glu, Mn2+-supported biosynthetic reaction, 37°C) with AbHeR WT IMV, light (532 nm); AbGS alone 5.42 in data set [2] was determined as 12.2 M⁻¹ s⁻¹. In [3], the amount of product (Pi) of the AbGS biosynthetic reaction with AbHeR WT IMV at 150 min, in the absence of light, against AbHeR K216Q IMV is 1.09 times. For the same substance, the amount of product (Pi) of the AbGS biosynthetic reaction with AbHeR WT IMV at 150 min, in the presence of light against the absence of light in data set [3] amounted to 1.1 times. In data set [3], the amount of product (Pi) of the AbGS biosynthetic reaction with AbHeR WT IMV at 150 min, in the presence of light, against AbHeR K216Q IMV was 1.2 times. Moreover, the Kd (commonly a measure of binding affinity in units of concentration) stood at 44 µM in data set [4]; 30 µM in data set [5]; 137 µM in data set [6]; 3680 µM in data set [7]; 100 µM in data set [8]; 6.06 µM in data set [9]. The dH is 1.14 kcal/mol in data set [4], 2.36 kcal/mol in data set [5], 5.31 kcal/mol in [6] and 2.07 kcal/mol in [8].
With “Heliorhodopsin AbHeR (Actinobacteria bacterium IMCC26103)”, the pKa (commonly the negative logarithm of the acid dissociation constant) in data set [10] is 2.84 (± 1.07).
